Where two headings read alike, the source gives them in different places. Where no end group is shown, it is not given here. [ ]: non-standard residue; d: D form. The star is where a group is joined. 5FAM = O=C1OC2(c3ccc(O)cc3Oc3cc(O)ccc32)c2ccc(C(=O)*)cc21; Lys(Me3) = C[N+](C)(C)CCCC[C@H](N)C(=O)O
Experiments:
Assay in all cases: FP
[1] = target: T1, Chromodomain Y-like protein 2 chromodomain
T1 chain: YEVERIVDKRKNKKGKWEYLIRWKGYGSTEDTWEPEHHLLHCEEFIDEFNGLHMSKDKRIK

[2] = target: T2, M Phase Phosphoprotein 8 chromodomain (UniProt Q99549 55-116)
T2 chain: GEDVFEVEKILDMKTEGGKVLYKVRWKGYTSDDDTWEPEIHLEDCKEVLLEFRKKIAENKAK

[3] = target: T2, M Phase Phosphoprotein 8 chromodomain

5FAM-TAR[Lys(Me3)]STG (also: flanking glycines, number not given here) [FAM-TAR(Kme3)STG peptide (H3K9me3)]
Kd [1]: 18.4 µM | Kd [2]: 11.5 µM

5FAM-WAY[Lys(Me3)]TGK (also: flanking glycines, number not given here) [FAM-WAY(Kme3)TGK peptide]
Kd [3]: 1.37 µM
